Experiment [1] addresses T1, complex formed between CRBN/DDB1 and pomalidomide (UniProt Q96SW2 1-442; Q16531 2-1140, limits assumed).
T1 construct: mature; Same proteins as m3 with 10 uM pomalidomide. 'mature' stands for the printed 'WT full length'; also called CRBN/DDB1 in the presence of pomalidomide
In words: TR-FRET displacement of Sulfo-Cy5 Aiolos peptide probe from CRBN/DDB1 with 10 uM pomalidomide. The figure is told overall for the three IMiDs. On the procedure: (§1) All TR-FRET assays were ran in Black 384-well ProxiPlate Plus (Perkin-Elmer, USA), in a buffer containing 20 mM HEPES pH 8.0, 150 mM NaCl, 0.5 mM TCEP, 0.05% Tween 20 and 0.05% BSA, with a final assay volume of 10 μL. An Echo E550 (Beckman Coulter, USA) acoustic liquid dispenser was used to create final concentration ranges from 82 μM down to 2.05 nM for iTAG1 and 27 μM down to 0.68 nM for iTAG2. […] Finally, IMiDs were added to a final concentration of 10 μM with the Echo. Plates were sealed, centrifuged at 200 g for 1 min and stored overnight at 4° C. The TR-FRET signals were read using a PHERAstar FSX plate reader (BMG Labtech, Germany).
For orientation: TR-FRET usually uses a lanthanide donor and a delayed reading to cut background.

In experiment [2] the target is T2, complex formed between CRBN/DDB1 and lenalidomide (UniProt Q96SW2 1-442; Q16531 2-1140, limits assumed).
T2 construct: mature; Same proteins as m3 with 10 uM lenalidomide. 'mature' stands for the printed 'WT full length'; also called CRBN/DDB1 in the presence of lenalidomide
As to the kind of experiment: TR-FRET displacement of Sulfo-Cy5 Aiolos peptide probe from CRBN/DDB1 with 10 uM lenalidomide. The figure is told overall for the three IMiDs. On the procedure: as §1

Experiment [3] addresses T3, CRBN/DDB1 protein complex (no IMiD) (UniProt Q96SW2 1-442; Q16531 1-1140, limits assumed).
T3 construct: As used in the SEC sample without iberdomide; also called CRBN/DDB1 complex
In words: size exclusion chromatography (Superose 6) with SDS-PAGE of fractions, no iberdomide. Background: SEC sorts molecules by how far they enter the pores of the column.
Protocol: Purified CRBN/DDB1 protein complex and iTAG2 protein were mixed together and subjected to SEC in the presence or absence of iberdomide, shown in FIG. 14.
100 μM iberdomide was included in one of the samples and both were incubated on ice for 1 hour, then centrifuged at 21000 g for 10 minutes prior to injection to remove potential aggregates. The Superose 6 column was pre-equilibrated in the same buffer (20 mM HEPES pH 7.0, 200 mM NaCl and 1 mM TCEP) at a flow rate of 0.25 mL/min before injection of 50 μL of each sample.

Experiment [4] deals with T4, complex formed between CRBN/DDB1 and iberdomide (UniProt Q96SW2 1-442; Q16531 2-1140, limits assumed).
T4 construct: mature; also called CRBN/DDB1 in the presence of iberdomide; CRBN/DDB1 with CC-220
As to the kind of experiment: TR-FRET displacement of Sulfo-Cy5 Aiolos peptide probe from CRBN/DDB1 with 10 uM iberdomide. The figure is told overall for the three IMiDs. As to the method:
as §1

T4 sequence (Q96SW2 whole entry, chain 1 of 2): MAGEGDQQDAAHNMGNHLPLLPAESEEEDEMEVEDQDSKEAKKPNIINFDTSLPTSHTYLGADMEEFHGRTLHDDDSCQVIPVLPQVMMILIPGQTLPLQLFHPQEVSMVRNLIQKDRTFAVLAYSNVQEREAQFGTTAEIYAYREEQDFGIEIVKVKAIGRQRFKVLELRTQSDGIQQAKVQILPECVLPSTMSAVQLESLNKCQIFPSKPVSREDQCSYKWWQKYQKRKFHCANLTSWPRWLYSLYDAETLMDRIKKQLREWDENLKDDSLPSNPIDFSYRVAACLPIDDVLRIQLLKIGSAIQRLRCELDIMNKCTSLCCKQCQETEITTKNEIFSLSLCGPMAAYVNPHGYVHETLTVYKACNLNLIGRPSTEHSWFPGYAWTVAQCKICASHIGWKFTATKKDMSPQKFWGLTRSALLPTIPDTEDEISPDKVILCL
T4 sequence (Q16531 2-1140 limits assumed, chain 2 of 2): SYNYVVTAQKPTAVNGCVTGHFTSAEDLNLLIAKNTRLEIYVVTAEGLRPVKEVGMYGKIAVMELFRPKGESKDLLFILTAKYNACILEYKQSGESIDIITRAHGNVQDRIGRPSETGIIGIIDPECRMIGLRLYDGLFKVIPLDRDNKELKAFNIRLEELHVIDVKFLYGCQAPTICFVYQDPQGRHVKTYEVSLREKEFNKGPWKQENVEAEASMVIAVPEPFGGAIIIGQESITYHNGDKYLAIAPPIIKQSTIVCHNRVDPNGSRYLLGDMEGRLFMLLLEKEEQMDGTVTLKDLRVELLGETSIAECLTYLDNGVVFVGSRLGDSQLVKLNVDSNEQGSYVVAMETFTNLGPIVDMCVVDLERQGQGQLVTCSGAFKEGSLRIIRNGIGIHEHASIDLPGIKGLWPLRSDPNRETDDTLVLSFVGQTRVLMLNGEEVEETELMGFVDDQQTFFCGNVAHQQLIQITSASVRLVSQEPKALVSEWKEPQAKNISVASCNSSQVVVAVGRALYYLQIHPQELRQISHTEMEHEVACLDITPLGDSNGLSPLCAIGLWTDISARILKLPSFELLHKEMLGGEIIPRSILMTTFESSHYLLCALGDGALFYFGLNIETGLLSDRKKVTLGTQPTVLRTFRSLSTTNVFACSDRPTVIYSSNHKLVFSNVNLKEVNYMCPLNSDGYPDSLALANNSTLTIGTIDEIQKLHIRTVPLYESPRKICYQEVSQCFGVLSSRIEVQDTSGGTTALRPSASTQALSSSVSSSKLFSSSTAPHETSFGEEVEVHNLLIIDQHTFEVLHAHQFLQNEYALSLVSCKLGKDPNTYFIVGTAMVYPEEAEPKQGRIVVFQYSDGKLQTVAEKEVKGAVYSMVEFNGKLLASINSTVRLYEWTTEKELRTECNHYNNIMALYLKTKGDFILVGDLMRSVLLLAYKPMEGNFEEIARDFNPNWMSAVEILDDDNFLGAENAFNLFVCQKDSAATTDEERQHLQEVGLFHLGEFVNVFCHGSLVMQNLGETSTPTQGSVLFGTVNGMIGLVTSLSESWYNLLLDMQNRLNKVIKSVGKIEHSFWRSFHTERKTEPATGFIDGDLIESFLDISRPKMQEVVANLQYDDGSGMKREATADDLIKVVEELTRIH
T1 sequence (Q96SW2 whole entry, chain 1 of 2): as the sequence (Q96SW2 whole entry, chain 1 of 2) above
T1 sequence (Q16531 2-1140 limits assumed, chain 2 of 2): as the sequence (Q16531 2-1140 limits assumed, chain 2 of 2) above
T2 sequence (Q96SW2 whole entry, chain 1 of 2): as the sequence (Q96SW2 whole entry, chain 1 of 2) above
T2 sequence (Q16531 2-1140 limits assumed, chain 2 of 2): as the sequence (Q16531 2-1140 limits assumed, chain 2 of 2) above
T3 sequence (Q96SW2 whole entry, chain 1 of 2): as the sequence (Q96SW2 whole entry, chain 1 of 2) above
T3 sequence (Q16531 whole entry, chain 2 of 2): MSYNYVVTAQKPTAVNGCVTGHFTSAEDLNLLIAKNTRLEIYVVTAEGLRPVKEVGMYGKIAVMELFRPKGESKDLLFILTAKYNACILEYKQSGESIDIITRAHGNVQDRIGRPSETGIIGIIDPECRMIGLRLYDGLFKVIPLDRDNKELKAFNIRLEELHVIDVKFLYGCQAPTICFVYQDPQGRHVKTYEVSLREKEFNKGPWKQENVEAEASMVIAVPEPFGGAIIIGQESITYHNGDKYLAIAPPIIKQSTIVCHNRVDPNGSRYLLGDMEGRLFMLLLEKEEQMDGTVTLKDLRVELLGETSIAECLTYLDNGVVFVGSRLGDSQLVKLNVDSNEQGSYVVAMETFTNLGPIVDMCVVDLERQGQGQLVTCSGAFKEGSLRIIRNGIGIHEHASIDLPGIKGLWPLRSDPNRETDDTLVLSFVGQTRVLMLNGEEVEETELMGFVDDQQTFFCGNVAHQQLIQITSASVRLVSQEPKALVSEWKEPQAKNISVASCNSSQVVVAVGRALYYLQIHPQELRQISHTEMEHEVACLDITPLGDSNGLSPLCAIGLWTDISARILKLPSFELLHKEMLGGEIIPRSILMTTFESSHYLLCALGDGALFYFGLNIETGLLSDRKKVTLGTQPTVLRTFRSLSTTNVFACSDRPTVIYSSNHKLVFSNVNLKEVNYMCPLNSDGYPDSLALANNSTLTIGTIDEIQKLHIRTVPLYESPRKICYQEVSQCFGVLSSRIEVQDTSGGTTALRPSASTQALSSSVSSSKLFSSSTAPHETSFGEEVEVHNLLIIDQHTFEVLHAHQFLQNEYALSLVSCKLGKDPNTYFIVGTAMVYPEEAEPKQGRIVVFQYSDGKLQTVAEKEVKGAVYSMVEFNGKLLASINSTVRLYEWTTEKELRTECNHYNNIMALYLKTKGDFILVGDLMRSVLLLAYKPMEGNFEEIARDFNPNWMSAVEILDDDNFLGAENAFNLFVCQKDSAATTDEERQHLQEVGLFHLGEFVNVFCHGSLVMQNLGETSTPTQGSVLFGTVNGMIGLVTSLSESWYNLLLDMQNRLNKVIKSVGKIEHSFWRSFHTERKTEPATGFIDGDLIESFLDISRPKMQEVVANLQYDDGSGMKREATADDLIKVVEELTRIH

B1: iTAG2 (DCD23mut) (designed binder)
chain: PNVLMVHNESHTGEIPLQCEICGFTCEQAGNLLNHIELHSGEIPFKCHLCNYACRRRDAL
notes: Purified iTAG2 protein
On to B1, for which the “fold difference of IC50 against iTAG1” value in experiment [1], in experiment [2] and in experiment [4] was around 10 fold throughout. Moreover, the binding result in experiment [3] was “no binding (tested: CRBN/DDB1 at 15 uM and iTAG2 at 50 uM)”.

The values above are taken from US20260166084A1 (INSTITUTE OF CANCER RESEARCH ROYAL CANCER HOSPITAL, published 2026).
